B1: h5C9a (antibody, V domains shown)
VH: EVQLVESGGGLVQPGGSLRLSCAASGYTFTNYGMNWVRQAPGKGLEWVAWINMYTGEPTYADDFKGRFTISRDDSKNTLYLQMNSLRAEDTAVYYCARLYNGNSLDYWGQGTLVTVSS
VL: DIQMTQSPSSLSASVGDRVTITCKSSQSLLNSGNQKSYLTWYQQKPGKAPKLLIYWASTLESGVPSRFSGSGSGTDFTLTISSLQPEDFATYYCQNAYSFPFTFGQGTKVEIK
B2: h5C9oo (antibody, V domains shown)
VH: EVQLVESGGGLVQPGGSLRLSCAVSGYTFSMNWVRQAPGKGLEWVAWINMYTGEPTYADDFKGRFTISRDDSKNTLYLQMNSLRAEDTAVYYCARLVRGNGFDYWGQGTLVTVSS
VL: DIQMTQSPSSLSASVGDRVTITCKSSQSLLNSGNQKSYLTWYQQKPGKAPKLLIYWASTLESGVPSRFSGSGSGTDYTLTISSLQPEDFATYYCQNAYSFPFTFGQGTKVEIK
B3: h5C9ok (antibody, V domains shown)
VH: EVQLVESGGGLVQPGGSLRLSCAVSGYTFSMNWVRQAPGKGLEWVAWINMYTGEPTYADDFKGRFTISRDDSKNTLYLQMNSLRAEDTAVYYCARLTRGNSLDYWGQGTLVTVSS
VL: DIQMTQSPSSLSASVGDRVTITCKSSQSLLNSGNQKSYLTWYQQKPGKAPKLLIYWASTLESGVPSRFSGSGSGTDYTLTISSLQPEDFATYYCQNAYSFPFTFGQGTKVEIK
B4: h5C9om (antibody, V domains shown)
VH: EVQLVESGGGLVQPGGSLRLSCAVSGYTFSMNWVRQAPGKGLEWVAWINMYTGEPTYADDFKGRFTISRDDSKNTLYLQMNSLRAEDTAVYYCARLARGNGFDYWGQGTLVTVSS
VL: DIQMTQSPSSLSASVGDRVTITCKSSQSLLNSGNQKSYLTWYQQKPGKAPKLLIYWASTLESGVPSRFSGSGSGTDYTLTISSLQPEDFATYYCQNAYSFPFTFGQGTKVEIK
B5: h5C9oap (antibody, V domains shown)
VH: EVQLVESGGGLVQPGGSLRLSCAVSGYTFSMNWVRQAPGKGLEWVAWINMYTGERTYADDFKGRFTISRDDSKNTLYLQMNSLRAEDTAVYYCARLYNGNSLDYWGQGTLVTVSS
VL: DIQMTQSPSSLSASVGDRVTITCKSSQSLLNWGNQKSYLTWYQQKPGKAPKLLIYWASTLQSGVPSRFSGSGSGTDYTLTISSLQPEDFATYYCQNAYSFPFTFGQGTKVEIK
B6: h5C9ox (antibody, V domains shown)
VH: EVQLVESGGGLVQPGGSLRLSCAVSGYTFSMNWVRQAPGKGLEWVAWINMYTGEPTYADDFKGRFTISRDDSKNTLYLQMNSLRAEDTAVYYCARASRGNGMDYWGQGTLVTVSS
VL: DIQMTQSPSSLSASVGDRVTITCKSSQSLLNSGNQKSYLTWYQQKPGKAPKLLIYWASTLESGVPSRFSGSGSGTDYTLTISSLQPEDFATYYCQNAYSFPFTFGQGTKVEIK
B7: h5C9oq (antibody, V domains shown)
VH: EVQLVESGGGLVQPGGSLRLSCAVSGYTFSMNWVRQAPGKGLEWVAWINMYTGEPTYADDFKGRFTISRDDSKNTLYLQMNSLRAEDTAVYYCARLYRGNVMDYWGQGTLVTVSS
VL: DIQMTQSPSSLSASVGDRVTITCKSSQSLLNSGNQKSYLTWYQQKPGKAPKLLIYWASTLESGVPSRFSGSGSGTDYTLTISSLQPEDFATYYCQNAYSFPFTFGQGTKVEIK
B8: h5C9oaq (antibody, V domains shown)
VH: EVQLVESGGGLVQPGGSLRLSCAVSGYTFSMNWVRQAPGKGLEWVAWINMYTGEQTYADDFKGRFTISRDDSKNTLYLQMNSLRAEDTAVYYCARLYNGNSLDYWGQGTLVTVSS
VL: DIQMTQSPSSLSASVGDRVTITCKSSQSLLNWGNQKSYLTWYQQKPGKAPKLLIYWASTLFSGVPSRFSGSGSGTDYTLTISSLQPEDFATYYCQNAYSFPFTFGQGTKVEIK
B9: h5C9ow (antibody, V domains shown)
VH: EVQLVESGGGLVQPGGSLRLSCAVSGYTFSMNWVRQAPGKGLEWVAWINMYTGEPTYADDFKGRFTISRDDSKNTLYLQMNSLRAEDTAVYYCARLTKGNGMDYWGQGTLVTVSS
VL: DIQMTQSPSSLSASVGDRVTITCKSSQSLLNSGNQKSYLTWYQQKPGKAPKLLIYWASTLESGVPSRFSGSGSGTDYTLTISSLQPEDFATYYCQNAYSFPFTFGQGTKVEIK
B10: h5C9os (antibody, V domains shown)
VH: EVQLVESGGGLVQPGGSLRLSCAVSGYTFSMNWVRQAPGKGLEWVAWINMYTGEPTYADDFKGRFTISRDDSKNTLYLQMNSLRAEDTAVYYCARTGTGNTMDYWGQGTLVTVSS
VL: DIQMTQSPSSLSASVGDRVTITCKSSQSLLNSGNQKSYLTWYQQKPGKAPKLLIYWASTLESGVPSRFSGSGSGTDYTLTISSLQPEDFATYYCQNAYSFPFTFGQGTKVEIK
B11: h5C9oaa (antibody, V domains shown)
VH: EVQLVESGGGLVQPGGSLRLSCAVSGYTFSMNWVRQAPGKGLEWVAWINMYTGEPTYADDFKGRFTISRDDSKNTLYLQMNSLRAEDTAVYYCARLVRGNGMDYWGQGTLVTVSS
VL: DIQMTQSPSSLSASVGDRVTITCKSSQSLLNSGNQKSYLTWYQQKPGKAPKLLIYWASTLESGVPSRFSGSGSGTDYTLTISSLQPEDFATYYCQNAYSFPFTFGQGTKVEIK
B12: h5C9op (antibody, V domains shown)
VH: EVQLVESGGGLVQPGGSLRLSCAVSGYTFSMNWVRQAPGKGLEWVAWINMYTGEPTYADDFKGRFTISRDDSKNTLYLQMNSLRAEDTAVYYCARTSRGNGMDYWGQGTLVTVSS
VL: DIQMTQSPSSLSASVGDRVTITCKSSQSLLNSGNQKSYLTWYQQKPGKAPKLLIYWASTLESGVPSRFSGSGSGTDYTLTISSLQPEDFATYYCQNAYSFPFTFGQGTKVEIK
B13: h5C9on (antibody, V domains shown)
VH: EVQLVESGGGLVQPGGSLRLSCAVSGYTFSMNWVRQAPGKGLEWVAWINMYTGEPTYADDFKGRFTISRDDSKNTLYLQMNSLRAEDTAVYYCARTAPGNGFDYWGQGTLVTVSS
VL: DIQMTQSPSSLSASVGDRVTITCKSSQSLLNSGNQKSYLTWYQQKPGKAPKLLIYWASTLESGVPSRFSGSGSGTDYTLTISSLQPEDFATYYCQNAYSFPFTFGQGTKVEIK
B14: h5C9ov (antibody, V domains shown)
VH: EVQLVESGGGLVQPGGSLRLSCAVSGYTFSMNWVRQAPGKGLEWVAWINMYTGEPTYADDFKGRFTISRDDSKNTLYLQMNSLRAEDTAVYYCARLVKGNGFDYWGQGTLVTVSS
VL: DIQMTQSPSSLSASVGDRVTITCKSSQSLLNSGNQKSYLTWYQQKPGKAPKLLIYWASTLESGVPSRFSGSGSGTDYTLTISSLQPEDFATYYCQNAYSFPFTFGQGTKVEIK
B15: h5C9ot (antibody, V domains shown)
VH: EVQLVESGGGLVQPGGSLRLSCAVSGYTFSMNWVRQAPGKGLEWVAWINMYTGEPTYADDFKGRFTISRDDSKNTLYLQMNSLRAEDTAVYYCARSSMGNGFDYWGQGTLVTVSS
VL: DIQMTQSPSSLSASVGDRVTITCKSSQSLLNSGNQKSYLTWYQQKPGKAPKLLIYWASTLESGVPSRFSGSGSGTDYTLTISSLQPEDFATYYCQNAYSFPFTFGQGTKVEIK
B16: h5C9ol (antibody, V domains shown)
VH: EVQLVESGGGLVQPGGSLRLSCAVSGYTFSMNWVRQAPGKGLEWVAWINMYTGEPTYADDFKGRFTISRDDSKNTLYLQMNSLRAEDTAVYYCARLGPGNVFDYWGQGTLVTVSS
VL: DIQMTQSPSSLSASVGDRVTITCKSSQSLLNSGNQKSYLTWYQQKPGKAPKLLIYWASTLESGVPSRFSGSGSGTDYTLTISSLQPEDFATYYCQNAYSFPFTFGQGTKVEIK
B17: h5C9oy (antibody, V domains shown)
VH: EVQLVESGGGLVQPGGSLRLSCAVSGYTFSMNWVRQAPGKGLEWVAWINMYTGEPTYADDFKGRFTISRDDSKNTLYLQMNSLRAEDTAVYYCARSSKGNGLDYWGQGTLVTVSS
VL: DIQMTQSPSSLSASVGDRVTITCKSSQSLLNSGNQKSYLTWYQQKPGKAPKLLIYWASTLESGVPSRFSGSGSGTDYTLTISSLQPEDFATYYCQNAYSFPFTFGQGTKVEIK
B18: h5C9oz (antibody, V domains shown)
VH: EVQLVESGGGLVQPGGSLRLSCAVSGYTFSMNWVRQAPGKGLEWVAWINMYTGEPTYADDFKGRFTISRDDSKNTLYLQMNSLRAEDTAVYYCARLSRGNSLDYWGQGTLVTVSS
VL: DIQMTQSPSSLSASVGDRVTITCKSSQSLLNSGNQKSYLTWYQQKPGKAPKLLIYWASTLESGVPSRFSGSGSGTDYTLTISSLQPEDFATYYCQNAYSFPFTFGQGTKVEIK
B19: h5C9or (antibody, V domains shown)
VH: EVQLVESGGGLVQPGGSLRLSCAVSGYTFSMNWVRQAPGKGLEWVAWINMYTGEPTYADDFKGRFTISRDDSKNTLYLQMNSLRAEDTAVYYCARLNRGNSMDYWGQGTLVTVSS
VL: DIQMTQSPSSLSASVGDRVTITCKSSQSLLNSGNQKSYLTWYQQKPGKAPKLLIYWASTLESGVPSRFSGSGSGTDYTLTISSLQPEDFATYYCQNAYSFPFTFGQGTKVEIK
B20: h5C9n (antibody, V domains shown)
VH: EVQLVESGGGLVQPGGSLRLSCAVSGYTFTNYGMNWVRQAPGKGLEWVAWINMYTGEPTYADDFKGRFTISRDDSKNTLYLQMNSLRAEDTAVYYCARLYNGNSLDYWGQGTLVTVSS
VL: DIQMTQSPSSLSASVGDRVTITCKSSQSLLNSGNQKSYLTWYQQKPGKAPKLLIYWASTLESGVPSRFSGSGSGTDFTLTISSLQPEDFATYYCQNAYSFPFTFGQGTKVEIK
B21: h5C9ou (antibody, V domains shown)
VH: EVQLVESGGGLVQPGGSLRLSCAVSGYTFSMNWVRQAPGKGLEWVAWINMYTGEPTYADDFKGRFTISRDDSKNTLYLQMNSLRAEDTAVYYCARLSKGNGMDYWGQGTLVTVSS
VL: DIQMTQSPSSLSASVGDRVTITCKSSQSLLNSGNQKSYLTWYQQKPGKAPKLLIYWASTLESGVPSRFSGSGSGTDYTLTISSLQPEDFATYYCQNAYSFPFTFGQGTKVEIK

In the assay the target is Recombinant protein Claudin 18.2. Briefly: ELISA on plate-coated recombinant Claudin 18.2, OD450; Kd table under the graph, no unit in the table, unit from the x axis log[antibody] nM.
Sequence of Recombinant protein Claudin 18.2 (chain, as listed by the source limits assumed, form in doubt): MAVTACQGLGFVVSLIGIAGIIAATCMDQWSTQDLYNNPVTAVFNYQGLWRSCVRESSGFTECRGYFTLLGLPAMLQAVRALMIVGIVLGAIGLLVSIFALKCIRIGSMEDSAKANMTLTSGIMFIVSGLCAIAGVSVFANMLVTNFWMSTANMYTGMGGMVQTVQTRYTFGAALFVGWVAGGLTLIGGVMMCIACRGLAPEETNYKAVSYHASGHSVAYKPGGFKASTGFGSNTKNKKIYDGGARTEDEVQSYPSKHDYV
What is called Kd is the constant that tells how readily two partners part at equilibrium. Take B1: the Kd is 0.278 nM.

Take B2: the Kd turned out to be 0.122 nM.

With B3, the Kd worked out at 0.108 nM.

Regarding B4, the Kd turned out to be 0.1 nM.

In the case of B5, the Kd is 0.189 nM.

On to B6, for which the dissociation constant (Kd) came out at 0.079 nM.

For B7, the equilibrium dissociation constant (Kd) came to 0.107 nM.

For B8, the equilibrium dissociation constant (Kd) came out at 0.203 nM.

In the case of B9, the dissociation constant (Kd) was 0.0882 nM.

As to B10, the Kd was determined as 0.134 nM.

Consider B11, for which the Kd was 0.0815 nM.

Regarding B12, the dissociation constant (Kd) is 0.109 nM.

Consider B13, for which the Kd was found to be 0.131 nM.

Consider B14, for which the Kd was 0.107 nM.

With B15, the dissociation constant (Kd) was determined as 0.0987 nM.

For B16, the Kd is 0.119 nM.

As for B17, the dissociation constant Kd amounted to 0.103 nM.

For B18, the dissociation constant (Kd) was 0.0778 nM.

In the case of B19, the Kd came to 0.0715 nM.

For B20, the Kd was found to be 0.323 nM.

Take B21: the Kd was 0.0919 nM.

The values are drawn from patent publication US20200207857A1.
